The source of these data is doi:10.1101/2021.11.23.469727 (bioRxiv, 2021).

Series [1] has as its target T1, Halo:pdf2K107E (Arabidopsis thaliana, UniProt Q93V99 1-743, K107E).
T1 sequence: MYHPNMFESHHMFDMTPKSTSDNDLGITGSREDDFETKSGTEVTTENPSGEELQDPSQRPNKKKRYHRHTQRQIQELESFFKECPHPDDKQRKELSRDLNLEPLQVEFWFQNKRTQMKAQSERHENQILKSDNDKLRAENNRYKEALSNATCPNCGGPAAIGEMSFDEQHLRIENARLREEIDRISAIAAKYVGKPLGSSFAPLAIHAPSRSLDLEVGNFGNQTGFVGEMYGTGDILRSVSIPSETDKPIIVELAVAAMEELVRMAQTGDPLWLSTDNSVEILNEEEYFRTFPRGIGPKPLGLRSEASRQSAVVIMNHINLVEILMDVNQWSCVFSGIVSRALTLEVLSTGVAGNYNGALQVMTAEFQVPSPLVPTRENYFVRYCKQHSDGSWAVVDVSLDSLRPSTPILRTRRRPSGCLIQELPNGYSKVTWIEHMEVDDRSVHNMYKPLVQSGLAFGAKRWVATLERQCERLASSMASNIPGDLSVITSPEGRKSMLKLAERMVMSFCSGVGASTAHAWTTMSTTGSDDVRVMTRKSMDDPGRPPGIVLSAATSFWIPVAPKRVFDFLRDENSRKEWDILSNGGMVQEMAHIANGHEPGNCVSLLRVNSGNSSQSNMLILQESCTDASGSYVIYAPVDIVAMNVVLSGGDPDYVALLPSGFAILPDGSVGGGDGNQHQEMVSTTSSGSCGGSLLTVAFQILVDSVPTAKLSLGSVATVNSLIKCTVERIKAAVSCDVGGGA
In words: EMSA.

Series [2] has as its target T2, Halo:ATML1 (Arabidopsis thaliana, UniProt Q8RWU4 1-762).
T2 sequence: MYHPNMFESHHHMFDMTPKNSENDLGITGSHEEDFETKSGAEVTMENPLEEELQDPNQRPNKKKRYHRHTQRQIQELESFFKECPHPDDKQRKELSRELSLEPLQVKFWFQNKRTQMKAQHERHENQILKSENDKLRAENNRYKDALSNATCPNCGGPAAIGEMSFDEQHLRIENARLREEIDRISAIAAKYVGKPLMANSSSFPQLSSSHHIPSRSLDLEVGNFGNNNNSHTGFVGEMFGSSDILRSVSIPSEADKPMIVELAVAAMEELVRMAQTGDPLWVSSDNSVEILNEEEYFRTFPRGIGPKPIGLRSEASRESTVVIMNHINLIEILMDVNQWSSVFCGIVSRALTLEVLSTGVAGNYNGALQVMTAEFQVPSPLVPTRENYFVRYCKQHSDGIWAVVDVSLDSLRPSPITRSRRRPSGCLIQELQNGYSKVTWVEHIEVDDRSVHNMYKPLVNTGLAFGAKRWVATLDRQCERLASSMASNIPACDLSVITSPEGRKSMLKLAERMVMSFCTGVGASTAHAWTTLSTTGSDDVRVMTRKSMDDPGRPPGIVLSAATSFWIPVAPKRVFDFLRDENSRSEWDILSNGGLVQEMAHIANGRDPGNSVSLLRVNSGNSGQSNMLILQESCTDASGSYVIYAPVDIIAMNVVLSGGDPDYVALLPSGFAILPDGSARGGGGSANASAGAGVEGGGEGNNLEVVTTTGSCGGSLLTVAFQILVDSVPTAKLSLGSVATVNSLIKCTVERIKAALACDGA
Description: EMSA.

For series [3], the target named is T3, Halo:PDF2 (Arabidopsis thaliana, UniProt Q93V99 1-743).
T3 sequence: T1 sequence with E107K
In words: EMSA.

For series [4], the target named is T4, Halo:atml1ΔST (Arabidopsis thaliana, UniProt Q8RWU4 1-253+483-762, internal_change).
T4 sequence: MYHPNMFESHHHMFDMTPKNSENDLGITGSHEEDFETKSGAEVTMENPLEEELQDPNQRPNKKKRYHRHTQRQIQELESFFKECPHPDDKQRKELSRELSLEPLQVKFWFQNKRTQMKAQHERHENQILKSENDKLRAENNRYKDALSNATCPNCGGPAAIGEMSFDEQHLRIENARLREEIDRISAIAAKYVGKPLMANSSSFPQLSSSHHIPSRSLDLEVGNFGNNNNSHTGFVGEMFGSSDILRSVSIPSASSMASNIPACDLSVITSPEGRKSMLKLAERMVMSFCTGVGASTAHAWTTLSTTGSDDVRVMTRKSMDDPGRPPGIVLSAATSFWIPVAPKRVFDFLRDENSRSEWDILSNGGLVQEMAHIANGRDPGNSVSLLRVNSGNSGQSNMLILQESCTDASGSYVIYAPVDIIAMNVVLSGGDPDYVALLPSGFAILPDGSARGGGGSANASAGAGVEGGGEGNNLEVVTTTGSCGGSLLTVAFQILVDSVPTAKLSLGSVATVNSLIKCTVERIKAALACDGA
In words: EMSA.

Series [5] concerns the target T5, Halo:pdf2ΔST (Arabidopsis thaliana, UniProt Q93V99 1-244+475-743, internal_change).
T5 sequence: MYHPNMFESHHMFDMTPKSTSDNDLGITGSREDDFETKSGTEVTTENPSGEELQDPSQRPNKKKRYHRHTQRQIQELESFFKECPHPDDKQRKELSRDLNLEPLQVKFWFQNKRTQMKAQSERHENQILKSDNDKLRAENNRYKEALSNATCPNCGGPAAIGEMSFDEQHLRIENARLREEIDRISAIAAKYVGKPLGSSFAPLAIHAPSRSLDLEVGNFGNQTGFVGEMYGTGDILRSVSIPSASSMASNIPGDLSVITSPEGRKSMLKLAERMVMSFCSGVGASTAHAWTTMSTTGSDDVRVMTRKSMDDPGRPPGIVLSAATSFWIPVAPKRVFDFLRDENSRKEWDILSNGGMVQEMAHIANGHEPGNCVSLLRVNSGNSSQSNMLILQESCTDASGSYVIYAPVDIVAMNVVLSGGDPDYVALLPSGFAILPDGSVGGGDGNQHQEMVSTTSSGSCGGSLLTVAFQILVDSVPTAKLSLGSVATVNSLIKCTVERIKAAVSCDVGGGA
Description: EMSA.

Series [6] deals with the molecule itself. Description: native gel or EMSA.

Where a chain is given by its changes, count along the chain named.

B1: L1-box probe (3x L1 motif) (dsDNA)
DNA 1: GGGTACATTTATACATTTATACATTTAAAT
DNA 2: ATTTAAATGTATAAATGTATAAATGTACCC
Turning to B1, the binding result in series [1] is “no binding”; in series [2] it was “binds”; in series [3], “binds”; in series [4] it was “binds”; in series [5], “binds”.

B2: Halo:PDF2 (PROTODERMAL FACTOR2, full length, Halo-tagged) (natural protein, Arabidopsis thaliana, UniProt Q93V99 1-743, looked up)
chain: T1 sequence with E107K
As to B2, in series [6], the “stoichiometry N” value came out at 2.

B3: ATML1 (Arabidopsis thaliana MERISTEM LAYER1), wild type, protein of the EMSA (natural protein, UniProt Q8RWU4 1-762, looked up)
chain: T2 sequence
For the molecule B3, in series [6], the “stoichiometry N” value stood at 2.
